Measurements reported in patent US20130295102A1 (Novartis, published 2013).

Key:
[1] = biological target: T1, Cynomolgus Factor P (cynomolgus); experiment: SET, solution equilibrium titration
T1 construct: Purified from cynomolgus serum for SET/Biacore; Factor P of cynomolgus serum in the functional assays; also called Cyno Factor P; cyno FP
Description: (§1) In SET, a constant amount of antibody is incubated with different concentrations of antigen until equilibrium is reached. The concentration of free antibody in the equilibrated solution is determined by applying the solution on an antigen coated MSD™ plate (Meso Scale Discovery™) followed by incubation with an ECL-labeled secondary antibody and measurement of signal intensity. At low antigen concentrations, a strong signal is achieved (high concentration of free antibody which binds to the antigen on the plate) whereas for high antigen concentration, the antibody is completely antigen-captured, resulting in a low signal. If a sufficient number of antigen concentrations in a matching range are available, the titration curve allows for a reasonable determination of the affinity, using the appropriate fit model. […] The constant concentration of antibody applied in the assay should be in the range of, or below, the KD (Table 4).
(§2) Human Factor P (Complement Technology cat#: A139) and Cyno Factor P purified from cyno serum (protocol adapted from Nakano, et al., (1986) J Immunol Methods 90:77-83) were coated on standard binding MSD plates (Meso-Scale Discovery, 384-well: MSD cat#: L21XA, 96-well: MSD cat#: L15XA) at 0.2-0.3 μg/ml in 25 μl PBS and incubated overnight at 4° C. Factor P inhibitors were diluted to a fixed concentration (1 pM or 10 pM) in incubation buffer (PBS with 2% BSA (Sigma cat#: A4503) and 1% Tween20 and 1% Triton-X (Sigma cat#: 234729)), and added to a serial dilution of Factor P (human or cyno) in incubation buffer. Samples were allowed to reach equilibrium by incubation at RT overnight. Plates were washed 3× in wash buffer (PBS with 0.05% Tween20), and blocked with 100 μl incubation buffer at RT for 2 hrs. Plates were washed 3× in wash buffer. Sample containing Factor P inhibitors and Factor P titration were added to the plate (25 μl), and incubated at RT for 15 min. Plates were washed 3× in wash buffer. 25 μl detection antibody was added (Anti-Human (Goat) Sulfo-TAG, 1:1000 in incubation buffer, MSD cat#: R32AJ-1), and incubated at RT for 60 min. Plates were washed 3× in wash buffer, and 50 μl of 1×MSD Read buffer T was added (with surfactant, MSD cat#: R92TC-1). Plates were read on a MSD Spector Imager 6000.

[2] = biological target: T2, Human Factor P (human, UniProt P27918 29-469); experiment: SET, solution equilibrium titration
T2 construct: Bought protein (Complement Technology cat# A139) in SET and Biacore; Factor P of human serum in the functional assays; also called FP; human FP
Description: as §1, §2

[3] = biological target: T1, Cynomolgus Factor P; experiment: cell-based or functional assay
[4] = biological target: T2, Human Factor P; experiment: cell-based or functional assay
[5] = biological target: T1, Cynomolgus Factor P; experiment: Biacore SPR, captured Factor P
[6] = biological target: T2, Human Factor P; experiment: Biacore SPR, captured Factor P

T2 sequence (P27918 29-469 limits assumed): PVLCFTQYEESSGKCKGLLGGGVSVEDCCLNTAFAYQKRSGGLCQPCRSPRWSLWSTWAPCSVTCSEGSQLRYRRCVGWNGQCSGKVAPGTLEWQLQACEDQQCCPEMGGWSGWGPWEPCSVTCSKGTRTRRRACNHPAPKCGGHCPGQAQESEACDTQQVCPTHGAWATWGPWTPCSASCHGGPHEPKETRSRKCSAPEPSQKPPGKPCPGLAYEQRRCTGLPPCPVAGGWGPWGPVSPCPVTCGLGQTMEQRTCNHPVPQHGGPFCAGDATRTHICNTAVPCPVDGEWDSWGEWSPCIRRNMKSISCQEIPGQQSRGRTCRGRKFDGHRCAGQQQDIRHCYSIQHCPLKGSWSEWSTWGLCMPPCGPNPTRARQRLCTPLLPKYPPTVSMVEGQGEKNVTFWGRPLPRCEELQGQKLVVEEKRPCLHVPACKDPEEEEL

Binder	Kd [1] [nM]	Kd [2] [nM]	Zymosan-C3b IC50 (nM), 10% serum [3] [nM]	Inhibition of C3a generation, 20% human serum [4] [nM]	Zymosan-C3b IC50 (nM), 10% serum [4] [nM]	Kd [5] [nM]	koff [5] [s⁻¹]	kon [5] [M⁻¹ s⁻¹]	Kd [6] [nM]	koff [6] [s⁻¹]	kon [6] [M⁻¹ s⁻¹]	MAC Deposition, 20% Serum EC50 [3] [nM]	MAC Deposition, 20% Serum EC50 [4] [nM]	Hemolytic assay IC50 (nM), 10% serum [3] [nM]	Hemolytic assay IC50 (nM), 10% serum [4] [nM]
NVS964 (Fab, V domains shown, Disulfide-bridged Fab; also called Fab NVS964) VH: EVQLVQSGAEVKKPGASVKVSCKASGYTFTSHYMHWVRQAPGQGLEWMGKINADLGDTNYAQKFQGRVTMTRDTSISTAYMELSSLRSEDTAVYYCARDGIEHGGHYYWGYLFDIWGQGTLVTVSS VL: SYELTQPPSVSVAPGQTARISCSGDSIREYYVHWYQQKPGQAPVLVIGDDTNRPSGIPERFSGSNSGNTATLTISGTQAEDEADYYCAAWDFSPAIVFGGGTKLTVLG	0.19	0.02	6.59	42.2	1.54	0.16	0.0002	1e+06	0.035	4e-05	1e+06			13.4	9.26
NVS966 (Fab, V domains shown, Disulfide-bridged Fab; also called Fab NVS966) VH: EVQLVQSGAEVKKPGESLKISCKGSGYSFTNYWIGWVRQMPGKGLEWMGRIDPGESLTNYAPSFQGQVTISADKSISTAYLQWSSLKASDTAMYYCARTGVADVDMPFAHWGQGTLVTVSS VL: SYVLTQPPSVSVAPGKTARISCSGDNLGSYYVNWYQQKPGQAPVLVIYGDSERPSGIPERFSGSNSGNTATLTISRAQAGDEADYYCGSWDITSFVFGGGTKLTVLG	0.04	0.07	6.62	41.1	1.66	0.21	0.0002	1e+06	0.16	0.0003	2e+06			13	7.15
NVS965-S (Fab, V domains shown, NVS965 with heavy chain N30 replaced with serine) VH: EVQLVQSGAEVKKPGSSVKVSCKASGGTFSSYAISWVRQAPGQGLEWMGRIIPIFGTANYAQKFQGRVTITADESTSTAYMELSSLRSEDTAVYYCARHGGYSFDSWGQGTLVTVSS VL: SYVLTQPPSVSVAPGKTARISCSGDNLGSKYVDWYQQKPGQAPVLVIYSDNNRPSGIPERFSGSNSGNTATLTISGTQAMDEADYYCATYDSSPRTEVFGGGTKLTVLG	0.036	0.051	1.57		1.39	0.06	0.000163	2.71e+06	0.027	9.9e-05	3.69e+06	8.12	7.32	12	7.89
NVS965-T (Fab, V domains shown, NVS965 with heavy chain N30 replaced with threonine) VH: EVQLVQSGAEVKKPGSSVKVSCKASGGTFTSYAISWVRQAPGQGLEWMGRIIPIFGTANYAQKFQGRVTITADESTSTAYMELSSLRSEDTAVYYCARHGGYSFDSWGQGTLVTVSS VL: SYVLTQPPSVSVAPGKTARISCSGDNLGSKYVDWYQQKPGQAPVLVIYSDNNRPSGIPERFSGSNSGNTATLTISGTQAMDEADYYCATYDSSPRTEVFGGGTKLTVLG	0.044	0.052	1.91		0.77	0.0746	0.000151	2.17e+06	0.0514	0.000103	2.37e+06	11	13.8	12.5	7.15

Continued, in another order:

Kd [1] [nM]	Kd [2] [nM]	Zymosan-C3b IC50 (nM), 10% serum [3] [nM]	Inhibition of C3a generation, 20% human serum [4] [nM]	Zymosan-C3b IC50 (nM), 10% serum [4] [nM]	Kd [5] [nM]	koff [5] [s⁻¹]	kon [5] [M⁻¹ s⁻¹]	Kd [6] [nM]	koff [6] [s⁻¹]	kon [6] [M⁻¹ s⁻¹]	MAC Deposition, 20% Serum EC50 [3] [nM]	MAC Deposition, 20% Serum EC50 [4] [nM]	Binder	Hemolytic assay IC50 (nM), 10% serum [3] [nM]	Hemolytic assay IC50 (nM), 10% serum [4] [nM]
0.115	0.055	9.75	65.1	2.34	0.17	0.0002	1e+06	0.09	0.0001	1e+06			NVS963 (Fab, V domains shown, Disulfide-bridged Fab; also called Fab NVS963) VH: EVQLVQSGAEVKKPGSSVKVSCKASGGTFSSYAISWVRQAPGQGLEWMGPINPYYGDAIYAQKFQGRVTITADESTSTAYMELSSLRSEDTAVYYCARYYSDYMDYWGQGTLVTVSS VL: QSVLTQPPSVSGAPGQRVTISCTGSSSNIGAGYDVHWYQQLPGTAPKLLIHDNSHRPSGVPDRFSGSKSGTSASLAITGLQSEDEADYYCASYDESAHSVFGGGTKLTVLG	14.5	10.1
0.28	0.04	5.92	43.5	2.53	0.315	0.0006	1e+06	0.06	9e-05	1e+06			NVS967 (Fab, V domains shown, Disulfide-bridged Fab; also called Fab NVS967) VH: EVQLVQSGAEVKKPGASVKVSCKASGYTFTSHYMHWVRQAPGQGLEWMGNINPVDGGTEYAQKFQGRVTMTRDTSISTAYMELSSLRSEDTAVYYCARDGIEHGGHYYWGYLFDIWGQGTLVTVSS VL: SYVLTQPPSVSVAPGKTARISCSGDSIREYYVHWYQQKPGQAPVLVIGDDTNRPSGIPERFSGSNSGNTATLTISRAQAGDEADYYCAAWDFSPAIVFGGGTKLTVLG	14	9.61
